# Experimental data: paper PMC9259494
# Columns and labels:
# Assay in all cases: cryo-EM structure; single-particle cryo-EM of the co-purified R388 T4SS complex (VirB3-VirB10); 50 mM HEPES pH 7.6, 200 mM sodium acetate, 0.1% digitonin, 0.05 mM TDAO; maps of O-layer, I-layer, stalk, IMC protomer near-atomic, arches from the 6.18 Å map
# [1] = biological target: TrwG/VirB8 (R388 T4SS) (plasmid R388)
# [2] = biological target: TrwK/VirB4 (R388 T4SS) (plasmid R388)
# [3] = biological target: TrwF/VirB9 (R388 T4SS) (plasmid R388)
# [4] = biological target: TrwE/VirB10 with Strep tag (R388 T4SS) (plasmid R388)
# [5] = biological target: TrwJ/VirB5 (R388 T4SS) (plasmid R388)
# [6] = biological target: TrwI/VirB6 (R388 T4SS) (plasmid R388)
substance,measurement,setting,value
TrwG/VirB8 (R388 T4SS) (natural protein),stoichiometry N,[1],18
TrwK/VirB4 (R388 T4SS) (natural protein),stoichiometry N,[2],12
TrwF/VirB9 (R388 T4SS) (natural protein),stoichiometry N,[3],16
TrwE/VirB10 with Strep tag (R388 T4SS) (natural protein),stoichiometry N,[4],14
TrwJ/VirB5 (R388 T4SS) (natural protein),stoichiometry N,[5],5
TrwI/VirB6 (R388 T4SS) (natural protein),stoichiometry N,[6],5
